Experimental data taken from US20240360194A1, “New Peptides as Potent and Selective GIP Receptor Agonists” (Sanofi, priority 2021, published 2024).
Numbered stars: 1 amine (or outer) side, 2 acyl side, 3 side chain; on linkers, the order of the positions; unused ones are H or OH. Square brackets hold non-standard residues; d marks the D form. Side chains are listed from the residue outwards. Ends that are not written are not given here. * marks the point of attachment. C18 diacid = O=C(O)CCCCCCCCCCCCCCCCC(=O)*; γGlu = O=C(O)[C@H](CCC(=O)[*:2])N[*:1]; Iva = CC[C@](C)(N)C(=O)O; Abu = CC[C@H](N)C(=O)O; AEEA = NCCOCCOCC(=O)O; Aib = CC(C)(N)C(=O)O

T1: human GIP receptor (human, UniProt P48546 22-466)
T1 sequence (looked up): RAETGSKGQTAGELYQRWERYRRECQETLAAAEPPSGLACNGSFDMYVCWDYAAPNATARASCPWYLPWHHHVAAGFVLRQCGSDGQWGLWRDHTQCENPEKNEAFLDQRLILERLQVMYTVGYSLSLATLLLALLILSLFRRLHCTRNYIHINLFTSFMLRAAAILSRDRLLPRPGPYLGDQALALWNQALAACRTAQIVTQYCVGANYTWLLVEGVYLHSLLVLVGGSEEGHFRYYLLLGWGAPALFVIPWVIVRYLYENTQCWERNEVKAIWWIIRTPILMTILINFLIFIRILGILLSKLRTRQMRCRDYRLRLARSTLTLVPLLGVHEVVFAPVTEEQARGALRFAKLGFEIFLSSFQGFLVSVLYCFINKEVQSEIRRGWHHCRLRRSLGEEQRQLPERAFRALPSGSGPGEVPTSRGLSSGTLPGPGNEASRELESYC

B1: SEQ ID NO: 28 (peptide)
peptide: Y[Aib]EGTFISDLSI[Aib]K([AEEA-AEEA-γGlu-C18 diacid])DRIHQEEFIEWLLAQEPSSGAPPPS-OH
modifications: N-terminus assumed
SMILES: CC[C@H](C)[C@H](NC(=O)[C@H](Cc1ccccc1)NC(=O)[C@H](CCC(=O)O)NC(=O)[C@H](CCC(=O)O)NC(=O)[C@H](CCC(N)=O)NC(=O)[C@H](Cc1c[nH]cn1)NC(=O)[C@@H](NC(=O)[C@H](CCCNC(=N)N)NC(=O)[C@H](CC(=O)O)NC(=O)[C@H](CCCCNC(=O)COCCOCCNC(=O)COCCOCCNC(=O)CC[C@H](NC(=O)CCCCCCCCCCCCCCCCC(=O)O)C(=O)O)NC(=O)C(C)(C)NC(=O)[C@@H](NC(=O)[C@H](CO)NC(=O)[C@H](CC(C)C)NC(=O)[C@H](CC(=O)O)NC(=O)[C@H](CO)NC(=O)[C@@H](NC(=O)[C@H](Cc1ccccc1)NC(=O)[C@@H](NC(=O)CNC(=O)[C@H](CCC(=O)O)NC(=O)C(C)(C)NC(=O)[C@@H](N)Cc1ccc(O)cc1)[C@@H](C)O)[C@@H](C)CC)[C@@H](C)CC)[C@@H](C)CC)C(=O)N[C@@H](CCC(=O)O)C(=O)N[C@@H](Cc1c[nH]c2ccccc12)C(=O)N[C@@H](CC(C)C)C(=O)N[C@@H](CC(C)C)C(=O)N[C@@H](C)C(=O)N[C@@H](CCC(N)=O)C(=O)N[C@@H](CCC(=O)O)C(=O)N1CCC[C@H]1C(=O)N[C@@H](CO)C(=O)N[C@@H](CO)C(=O)NCC(=O)N[C@@H](C)C(=O)N1CCC[C@H]1C(=O)N1CCC[C@H]1C(=O)N1CCC[C@H]1C(=O)N[C@@H](CO)C(=O)O
notes: Synthetic peptide, 39 residues (Glu at 30)
B2: SEQ ID NO: 25 (peptide)
peptide: H-Y[Aib]EGT[Abu]ISDLSI[Aib]K([AEEA-AEEA-γGlu-C18 diacid])DRIHQEEFIEWLLAQGPSSGAPPPS-NH2
SMILES: CC[C@H](NC(=O)[C@@H](NC(=O)CNC(=O)[C@H](CCC(=O)O)NC(=O)C(C)(C)NC(=O)[C@@H](N)Cc1ccc(O)cc1)[C@@H](C)O)C(=O)N[C@H](C(=O)N[C@@H](CO)C(=O)N[C@@H](CC(=O)O)C(=O)N[C@@H](CC(C)C)C(=O)N[C@@H](CO)C(=O)N[C@H](C(=O)NC(C)(C)C(=O)N[C@@H](CCCCNC(=O)COCCOCCNC(=O)COCCOCCNC(=O)CC[C@H](NC(=O)CCCCCCCCCCCCCCCCC(=O)O)C(=O)O)C(=O)N[C@@H](CC(=O)O)C(=O)N[C@@H](CCCNC(=N)N)C(=O)N[C@H](C(=O)N[C@@H](Cc1c[nH]cn1)C(=O)N[C@@H](CCC(N)=O)C(=O)N[C@@H](CCC(=O)O)C(=O)N[C@@H](CCC(=O)O)C(=O)N[C@@H](Cc1ccccc1)C(=O)N[C@H](C(=O)N[C@@H](CCC(=O)O)C(=O)N[C@@H](Cc1c[nH]c2ccccc12)C(=O)N[C@@H](CC(C)C)C(=O)N[C@@H](CC(C)C)C(=O)N[C@@H](C)C(=O)N[C@@H](CCC(N)=O)C(=O)NCC(=O)N1CCC[C@H]1C(=O)N[C@@H](CO)C(=O)N[C@@H](CO)C(=O)NCC(=O)N[C@@H](C)C(=O)N1CCC[C@H]1C(=O)N1CCC[C@H]1C(=O)N1CCC[C@H]1C(=O)N[C@@H](CO)C(N)=O)[C@@H](C)CC)[C@@H](C)CC)[C@@H](C)CC)[C@@H](C)CC
notes: Synthetic peptide, 39 residues
B3: SEQ ID NO: 22 (peptide)
peptide: Y[Aib]EGTFISDLSI[Aib]K([AEEA-AEEA-γGlu-C18 diacid])DR[Aib]HQ[Aib]EFIEWLLAQRPSSGAPPPS-NH2
modifications: N-terminus assumed
SMILES: CC[C@H](C)[C@H](NC(=O)[C@H](Cc1ccccc1)NC(=O)[C@H](CCC(=O)O)NC(=O)C(C)(C)NC(=O)[C@H](CCC(N)=O)NC(=O)[C@H](Cc1c[nH]cn1)NC(=O)C(C)(C)NC(=O)[C@H](CCCNC(=N)N)NC(=O)[C@H](CC(=O)O)NC(=O)[C@H](CCCCNC(=O)COCCOCCNC(=O)COCCOCCNC(=O)CC[C@H](NC(=O)CCCCCCCCCCCCCCCCC(=O)O)C(=O)O)NC(=O)C(C)(C)NC(=O)[C@@H](NC(=O)[C@H](CO)NC(=O)[C@H](CC(C)C)NC(=O)[C@H](CC(=O)O)NC(=O)[C@H](CO)NC(=O)[C@@H](NC(=O)[C@H](Cc1ccccc1)NC(=O)[C@@H](NC(=O)CNC(=O)[C@H](CCC(=O)O)NC(=O)C(C)(C)NC(=O)[C@@H](N)Cc1ccc(O)cc1)[C@@H](C)O)[C@@H](C)CC)[C@@H](C)CC)C(=O)N[C@@H](CCC(=O)O)C(=O)N[C@@H](Cc1c[nH]c2ccccc12)C(=O)N[C@@H](CC(C)C)C(=O)N[C@@H](CC(C)C)C(=O)N[C@@H](C)C(=O)N[C@@H](CCC(N)=O)C(=O)N[C@@H](CCCNC(=N)N)C(=O)N1CCC[C@H]1C(=O)N[C@@H](CO)C(=O)N[C@@H](CO)C(=O)NCC(=O)N[C@@H](C)C(=O)N1CCC[C@H]1C(=O)N1CCC[C@H]1C(=O)N1CCC[C@H]1C(=O)N[C@@H](CO)C(N)=O
notes: as for B2

Target: T1, human GIP receptor
Experiment: cell-based or functional assay

Binder	hGIPR EC50 (cAMP, human adipocytes) [nM]	hGIPR Emax (cAMP, human adipocytes) [%]
B1	0.5	103
B2	0.2	112
B3	0.6	98
H-Y[Aib]EGT[Iva]ISDLSI[Aib]K([AEEA-AEEA-γGlu-C18 diacid])DRIHQ[Aib]EFIEWLLAQGPSSGAPPPS-NH2 (Synthetic peptide, 39 residues) [SEQ ID NO: 23]	0.2	91
H-Y[Aib]EGTFISDLSI[Aib]K([AEEA-AEEA-γGlu-C18 diacid])DRIHQ[Aib]EFIEW[Iva]LAQGPSSGAPPPS-NH2 (Synthetic peptide, 39 residues) [SEQ ID NO: 31]	0.7	121

Target: T2, human GLP-1 receptor (human, UniProt P43220 24-463)
T2 construct: whole, on cells; also called hGLP-1R; hGLP-1 R
Experiment: displacement of [125I]GLP-1 from HEK-293 membranes expressing hGLP-1R (SPA beads)

Binder	IC50 [nM]
B1	426
B2	417
B3	221
H-Y[Aib]EGT[Iva]ISDLSI[Aib]K([AEEA-AEEA-γGlu-C18 diacid])DRIHQ[Aib]EFIEWLLAQGPSSGAPPPS-NH2 (Synthetic peptide, 39 residues) [SEQ ID NO: 23]	259
H-Y[Aib]EGTFISDLSI[Aib]K([AEEA-AEEA-γGlu-C18 diacid])DRIHQ[Aib]EFIEW[Iva]LAQGPSSGAPPPS-NH2 (Synthetic peptide, 39 residues) [SEQ ID NO: 31]	292

Target: T1, human GIP receptor
Experiment: cell-based or functional assay
Remark: another data set of the same source

Binder	EC50 hGIPR 0% HSA (cAMP, HEK-293) [pM]	EC50 hGIPR 0.1% BSA (cAMP, HEK-293) [pM]
B1	0.73	64.7
B2	0.28	14.4
B3	0.16	6.66
H-Y[Aib]EGT[Iva]ISDLSI[Aib]K([AEEA-AEEA-γGlu-C18 diacid])DRIHQ[Aib]EFIEWLLAQGPSSGAPPPS-NH2 (Synthetic peptide, 39 residues) [SEQ ID NO: 23]	0.27	17.7
H-Y[Aib]EGTFISDLSI[Aib]K([AEEA-AEEA-γGlu-C18 diacid])DRIHQ[Aib]EFIEW[Iva]LAQGPSSGAPPPS-NH2 (Synthetic peptide, 39 residues) [SEQ ID NO: 31]	0.15	6.96

Target: T2, human GLP-1 receptor
Experiment: cell-based or functional assay

Binder	EC50 hGLP-1R 0.1% BSA (cAMP, HEK-293) [nM]
B1	> 10
B2	> 10
B3	> 10
H-Y[Aib]EGT[Iva]ISDLSI[Aib]K([AEEA-AEEA-γGlu-C18 diacid])DRIHQ[Aib]EFIEWLLAQGPSSGAPPPS-NH2 (Synthetic peptide, 39 residues) [SEQ ID NO: 23]	> 10
H-Y[Aib]EGTFISDLSI[Aib]K([AEEA-AEEA-γGlu-C18 diacid])DRIHQ[Aib]EFIEW[Iva]LAQGPSSGAPPPS-NH2 (Synthetic peptide, 39 residues) [SEQ ID NO: 31]	> 10
